# System: Escherichia coli TOP10
# Assay: shrunken log2 fold change of peptide-encoding DNA abundance (4.5 h post-induction vs induction); higher = less antimicrobial activity (less host growth inhibition)
# Settings: time post-induction: 4.5 h; library: site-saturation at positions 5, 18, 19, 20
# 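Note: peptides expressed intracellularly from a pBAD plasmid library in pooled LB shake-flask culture, induced with 0.3% L-arabinose, DNA abundance read by NGS, three biological replicates, DESeq2 with apeglm shrinkage.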
row,Sequence,shrunken log2 fold change
1,RRIRERPPRLPRPRPRPKAWPRP,0.0873
2,RRIRARPPRLPRPRPRPTPVPRP,0.696
3,RRIRTRPPRLPRPRPRPSETPRP,0.11
4,RRIRVRPPRLPRPRPRPQSQPRP,-0.214
5,RRIRLRPPRLPRPRPRPEWCPRP,-0.131
6,RRIRNRPPRLPRPRPRPRPHPRP,0.226
7,RRIRSRPPRLPRPRPRPFYAPRP,-0.236
8,RRIRDRPPRLPRPRPRPYEMPRP,-0.000896
9,RRIRQRPPRLPRPRPRPFYWPRP,-0.418
10,RRIRPRPPRLPRPRPRPNGRPRP,-0.00968
11,RRIRFRPPRLPRPRPRPQYQPRP,-0.118
12,RRIRMRPPRLPRPRPRPTRMPRP,0.685
13,RRIRGRPPRLPRPRPRPWHQPRP,1.75
14,RRIRCRPPRLPRPRPRPILQPRP,-0.0117
15,RRIRLRPPRLPRPRPRPMHCPRP,-0.00782
16,RRIRVRPPRLPRPRPRPHNRPRP,-0.241
17,RRIRKRPPRLPRPRPRPMVKPRP,0.427
18,RRIRERPPRLPRPRPRPTQFPRP,-0.118
19,RRIRRRPPRLPRPRPRPFTCPRP,-0.0792
20,RRIRLRPPRLPRPRPRPSNEPRP,-0.299
21,RRIRCRPPRLPRPRPRPLAVPRP,0.0263
22,RRIRYRPPRLPRPRPRPPRVPRP,-0.0115
23,RRIRYRPPRLPRPRPRPEVRPRP,-0.187
24,RRIRVRPPRLPRPRPRPFPTPRP,0.756
25,RRIRTRPPRLPRPRPRPTWRPRP,0.233

row,Sequence,shrunken log2 fold change
1,RRIRFRPPRLPRPRPRPRLGPRP,0.347
2,RRIRLRPPRLPRPRPRPKIRPRP,-0.128
3,RRIRARPPRLPRPRPRPELCPRP,0.92
4,RRIRIRPPRLPRPRPRPNRDPRP,-0.0377
5,RRIRARPPRLPRPRPRPERRPRP,0.77
6,RRIRERPPRLPRPRPRPNYEPRP,-0.182
7,RRIRIRPPRLPRPRPRPGALPRP,-0.111
8,RRIRQRPPRLPRPRPRPQQQPRP,-0.0448
9,RRIRCRPPRLPRPRPRPMMFPRP,0.312
10,RRIRLRPPRLPRPRPRPSWCPRP,-0.277
11,RRIRDRPPRLPRPRPRPQMPPRP,-0.486
12,RRIRNRPPRLPRPRPRPKMEPRP,0.015
13,RRIRSRPPRLPRPRPRPAPYPRP,0.265
14,RRIRMRPPRLPRPRPRPCNNPRP,0.0654
15,RRIRVRPPRLPRPRPRPPFHPRP,0.0102
16,RRIRCRPPRLPRPRPRPEWCPRP,0.145
17,RRIRDRPPRLPRPRPRPYYMPRP,-0.399
18,RRIRFRPPRLPRPRPRPTFWPRP,-0.0559
19,RRIRMRPPRLPRPRPRPHCQPRP,-0.0624
20,RRIRGRPPRLPRPRPRPSCWPRP,0.413
21,RRIRPRPPRLPRPRPRPVEPPRP,0.352
22,RRIRGRPPRLPRPRPRPRYWPRP,0.248
23,RRIRSRPPRLPRPRPRPLWFPRP,0.274
24,RRIRSRPPRLPRPRPRPLEIPRP,0.11
25,RRIRSRPPRLPRPRPRPACVPRP,0.224

row,Sequence,shrunken log2 fold change
1,RRIRARPPRLPRPRPRPNCIPRP,-0.113
2,RRIRTRPPRLPRPRPRPRMCPRP,0.00183
3,RRIRVRPPRLPRPRPRPCCWPRP,-0.087
4,RRIRARPPRLPRPRPRPYSAPRP,-0.256
5,RRIRWRPPRLPRPRPRPCDMPRP,-0.173
6,RRIRFRPPRLPRPRPRPWVVPRP,0.0143
7,RRIRLRPPRLPRPRPRPGWSPRP,0.0496
8,RRIRMRPPRLPRPRPRPSGHPRP,0.0431
9,RRIRHRPPRLPRPRPRPLSQPRP,-0.0443
10,RRIRIRPPRLPRPRPRPDTMPRP,-0.272
11,RRIRQRPPRLPRPRPRPIKNPRP,-0.186
12,RRIRNRPPRLPRPRPRPIVMPRP,-0.0105
13,RRIRMRPPRLPRPRPRPTGSPRP,1.34
14,RRIRPRPPRLPRPRPRPQFPPRP,0.0341
15,RRIRNRPPRLPRPRPRPVKFPRP,-0.0271
16,RRIRCRPPRLPRPRPRPPIHPRP,-0.248
17,RRIRFRPPRLPRPRPRPLCGPRP,-0.154
18,RRIRNRPPRLPRPRPRPAPRPRP,1.6
19,RRIRPRPPRLPRPRPRPFDIPRP,-0.395
20,RRIRWRPPRLPRPRPRPKVHPRP,-0.136
21,RRIRSRPPRLPRPRPRPMAGPRP,0.119
22,RRIRIRPPRLPRPRPRPQQTPRP,-0.169
23,RRIRERPPRLPRPRPRPNPRPRP,0.134
24,RRIRWRPPRLPRPRPRPDGKPRP,0.00353
25,RRIRIRPPRLPRPRPRPKADPRP,0.204

# Reference: the supplement of paper PMC9112550, “Optimization of the antimicrobial peptide Bac7 by deep mutational scanning” (BMC Biology, 2022)
